Measurements published in patent US20250312499A1, “KISSPEPTIN RECEPTOR (KISS1R) TARGETED THERAPEUTICS AND USES THEREOF” (priority 2024, published 2025).
One block for each binder: values may come before it. Numbered stars: 1 amine (or outer) side, 2 acyl side, 3 side chain; on linkers, the order of the positions; unused ones are H or OH. Square brackets hold non-standard residues; d marks the D form. * marks the point of attachment. X2 = 4‑amino‑1‑((3-fluoro-4-methylbenzyl)glycyl)piperidine‑4‑carboxylic acid, Cc1ccc(CN(CC(=O)N2CCC(N[*:1])(C(=O)[*:2])CC2)[*:3])cc1F; X7 = 4‑amino‑1‑(N-methylcarbamimidoyl)piperidine‑4‑carboxylic acid, CNC(=N)N1CCC(N[*:1])(C(=O)[*:2])CC1; X6 = 3‑(2-(2-(3-(p-tolyl)propanamido)ethoxy)ethoxy)propanoyl, Cc1ccc(CCC(=O)NCCOCCOCCC(=O)*)cc1; DOTA = O=C(O)CN1CCN(CC(=O)O)CCN(CC(=O)*)CCN(CC(=O)O)CC1; Phe(4-CN) = N#Cc1ccc(C[C@H](N)C(=O)O)cc1; Phe(3-F) = N[C@@H](Cc1cccc(F)c1)C(=O)O; 2Nal = N[C@@H](Cc1ccc2ccccc2c1)C(=O)O; 4Pal = N[C@@H](Cc1ccncc1)C(=O)O; d4Pal = N[C@H](Cc1ccncc1)C(=O)O; Cha = N[C@@H](CC1CCCCC1)C(=O)O; NH‑glycol = not defined here; ABA = not defined here; APM = not defined here; Ahx = NCCCCCC(=O)O; azaGly = NNC(=O)O

Biological target: human kisspeptin receptor (KISS1R) (human), Q969F8
Test: radioligand competition, hKISS1R membranes; legend: A is <10 nM

Chain of human kisspeptin receptor (KISS1R) (human), Q969F8 (Q969F8 whole entry): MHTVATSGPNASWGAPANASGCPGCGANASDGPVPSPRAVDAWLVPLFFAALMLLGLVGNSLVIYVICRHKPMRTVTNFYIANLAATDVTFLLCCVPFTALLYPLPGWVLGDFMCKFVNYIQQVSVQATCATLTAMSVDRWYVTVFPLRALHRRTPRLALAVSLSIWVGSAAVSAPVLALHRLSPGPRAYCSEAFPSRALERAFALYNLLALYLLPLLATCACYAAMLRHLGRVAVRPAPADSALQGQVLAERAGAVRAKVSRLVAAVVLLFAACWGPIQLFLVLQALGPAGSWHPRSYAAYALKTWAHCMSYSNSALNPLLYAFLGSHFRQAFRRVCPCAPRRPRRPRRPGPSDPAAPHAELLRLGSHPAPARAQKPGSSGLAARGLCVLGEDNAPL

B2: Compound 36 (peptide)
peptide: {DOTA-Ahx}-[dY]ENT[Phe(3-F)][azaGly]L[X2]W-NH2
SMILES: Cc1ccc(CNCC(=O)N2CCC(NC(=O)[C@H](CC(C)C)NC(=O)NNC(=O)[C@H](Cc3cccc(F)c3)NC(=O)[C@@H](NC(=O)[C@H](CC(N)=O)NC(=O)[C@H](CCC(=O)O)NC(=O)[C@@H](Cc3ccc(O)cc3)NC(=O)CCCCCNC(=O)CN3CCN(CC(=O)O)CCN(CC(=O)O)CCN(CC(=O)O)CC3)[C@@H](C)O)(C(=O)N[C@@H](Cc3c[nH]c4ccccc34)C(N)=O)CC2)cc1F
Ki: < 10 nM

Binder: {DOTA-ABA}-F[azaGly]L[X2]W-NH2 (reading uncertain) [Compound 50]
Ki: < 10 nM

B5: Compound 32 (peptide)
peptide: {DOTA-Ahx}-[dY][dH][dW]NTF[azaGly]L[X2]W-NH2
SMILES: Cc1ccc(CNCC(=O)N2CCC(NC(=O)[C@H](CC(C)C)NC(=O)NNC(=O)[C@H](Cc3ccccc3)NC(=O)[C@@H](NC(=O)[C@H](CC(N)=O)NC(=O)[C@@H](Cc3c[nH]c4ccccc34)NC(=O)[C@@H](Cc3c[nH]cn3)NC(=O)[C@@H](Cc3ccc(O)cc3)NC(=O)CCCCCNC(=O)CN3CCN(CC(=O)O)CCN(CC(=O)O)CCN(CC(=O)O)CC3)[C@@H](C)O)(C(=O)N[C@@H](Cc3c[nH]c4ccccc34)C(N)=O)CC2)cc1F
Ki: < 10 nM

Binder: {DOTA-APM}-[dY][dW]NT[Phe(3-F)][azaGly]L[X2]W-NH2 (reading uncertain) [Compound 34]
Ki: < 10 nM

Binder: {DOTA-NH‑glycol}-[dY][dW]NTF[azaGly]L[X2]W-NH2 (reading uncertain) [Compound 57]
Ki: < 10 nM

B8: Compound 23 (peptide)
peptide: {DOTA}-[dY][d4Pal]NTF[azaGly]L[X2]W-NH2
SMILES: Cc1ccc(CNCC(=O)N2CCC(NC(=O)[C@H](CC(C)C)NC(=O)NNC(=O)[C@H](Cc3ccccc3)NC(=O)[C@@H](NC(=O)[C@H](CC(N)=O)NC(=O)[C@@H](Cc3ccncc3)NC(=O)[C@@H](Cc3ccc(O)cc3)NC(=O)CN3CCN(CC(=O)O)CCN(CC(=O)O)CCN(CC(=O)O)CC3)[C@@H](C)O)(C(=O)N[C@@H](Cc3c[nH]c4ccccc34)C(N)=O)CC2)cc1F
Ki: < 10 nM

Binder: {DOTA-APM}-[dY][dH][dW]NTF[azaGly]L[X2]W-NH2 (reading uncertain) [Compound 33]
Ki: < 10 nM

B11: Compound 26 (peptide)
peptide: {DOTA-Ahx}-NTF[azaGly]L[X2]W-NH2
SMILES: Cc1ccc(CNCC(=O)N2CCC(NC(=O)[C@H](CC(C)C)NC(=O)NNC(=O)[C@H](Cc3ccccc3)NC(=O)[C@@H](NC(=O)[C@H](CC(N)=O)NC(=O)CCCCCNC(=O)CN3CCN(CC(=O)O)CCN(CC(=O)O)CCN(CC(=O)O)CC3)[C@@H](C)O)(C(=O)N[C@@H](Cc3c[nH]c4ccccc34)C(N)=O)CC2)cc1F
Ki: < 10 nM

Binder: {DOTA-4‑(aminomethyl)cyclohexanecarboxylic acid}-F[azaGly]L[X2]W-NH2 [Compound 25]
Ki: < 10 nM

B13: Compound 2 (peptide)
peptide: {DOTA-Ahx}-F[azaGly]L[X2]W-NH2
SMILES: Cc1ccc(CNCC(=O)N2CCC(NC(=O)[C@H](CC(C)C)NC(=O)NNC(=O)[C@H](Cc3ccccc3)NC(=O)CCCCCNC(=O)CN3CCN(CC(=O)O)CCN(CC(=O)O)CCN(CC(=O)O)CC3)(C(=O)N[C@@H](Cc3c[nH]c4ccccc34)C(N)=O)CC2)cc1F
Ki: < 10 nM

B14: Compound 27 (peptide)
peptide: {DOTA-Ahx}-[dY]KNT[Phe(3-F)][azaGly]L[X2]W-NH2
SMILES: Cc1ccc(CNCC(=O)N2CCC(NC(=O)[C@H](CC(C)C)NC(=O)NNC(=O)[C@H](Cc3cccc(F)c3)NC(=O)[C@@H](NC(=O)[C@H](CC(N)=O)NC(=O)[C@H](CCCCN)NC(=O)[C@@H](Cc3ccc(O)cc3)NC(=O)CCCCCNC(=O)CN3CCN(CC(=O)O)CCN(CC(=O)O)CCN(CC(=O)O)CC3)[C@@H](C)O)(C(=O)N[C@@H](Cc3c[nH]c4ccccc34)C(N)=O)CC2)cc1F
Ki: < 10 nM

More lines, now with the values ahead:

Ki: < 10 nM
B1: Compound 35 (peptide)
peptide: {DOTA-Ahx}-[dY]WNT[Phe(3-F)][azaGly]L[X2]W-NH2
SMILES: Cc1ccc(CNCC(=O)N2CCC(NC(=O)[C@H](CC(C)C)NC(=O)NNC(=O)[C@H](Cc3cccc(F)c3)NC(=O)[C@@H](NC(=O)[C@H](CC(N)=O)NC(=O)[C@H](Cc3c[nH]c4ccccc34)NC(=O)[C@@H](Cc3ccc(O)cc3)NC(=O)CCCCCNC(=O)CN3CCN(CC(=O)O)CCN(CC(=O)O)CCN(CC(=O)O)CC3)[C@@H](C)O)(C(=O)N[C@@H](Cc3c[nH]c4ccccc34)C(N)=O)CC2)cc1F

Ki: < 10 nM
B3: Compound 104 (peptide)
peptide: {DOTA-Ahx}-[dY][dW]NTF[azaGly]L[X2][Phe(4-CN)]-NH2
SMILES: Cc1ccc(CNCC(=O)N2CCC(NC(=O)[C@H](CC(C)C)NC(=O)NNC(=O)[C@H](Cc3ccccc3)NC(=O)[C@@H](NC(=O)[C@H](CC(N)=O)NC(=O)[C@@H](Cc3c[nH]c4ccccc34)NC(=O)[C@@H](Cc3ccc(O)cc3)NC(=O)CCCCCNC(=O)CN3CCN(CC(=O)O)CCN(CC(=O)O)CCN(CC(=O)O)CC3)[C@@H](C)O)(C(=O)N[C@@H](Cc3ccc(C#N)cc3)C(N)=O)CC2)cc1F

Ki: < 10 nM
B4: Compound 22 (peptide)
peptide: {DOTA-Ahx}-FF[azaGly]L[X2]W-NH2
modifications: not fully specified; numbers in words are those of the source; also: places azaglycine at site 3

Ki: < 10 nM
Binder: X6-[dY][dK](DOTA)NT[Cha][azaGly]L[4‑amino‑1‑carbamimidoylpiperidine‑4‑carboxylic acid(Sarcosine)]W-NH2 [Compound 388]

Ki: < 10 nM
Binder: {DOTA-APM}-F[azaGly]L[X2]W-NH2 (reading uncertain) [Compound 28]

Ki: < 10 nM
Binder: {DOTA-NH‑glycol}-[dY][2Nal]NTF[azaGly]L[X2]W-NH2 (reading uncertain) [Compound 58]

Ki: < 10 nM
B6: Compound 105 (peptide)
peptide: {DOTA-Ahx}-[dY][dW]NTF[azaGly]L[X2][4Pal]-NH2
SMILES: Cc1ccc(CNCC(=O)N2CCC(NC(=O)[C@H](CC(C)C)NC(=O)NNC(=O)[C@H](Cc3ccccc3)NC(=O)[C@@H](NC(=O)[C@H](CC(N)=O)NC(=O)[C@@H](Cc3c[nH]c4ccccc34)NC(=O)[C@@H](Cc3ccc(O)cc3)NC(=O)CCCCCNC(=O)CN3CCN(CC(=O)O)CCN(CC(=O)O)CCN(CC(=O)O)CC3)[C@@H](C)O)(C(=O)N[C@@H](Cc3ccncc3)C(N)=O)CC2)cc1F

Ki: < 10 nM
B7: Compound 20 (peptide)
peptide: {DOTA-Ahx}-[dY]PNTF[azaGly]L[X2]W-NH2
SMILES: Cc1ccc(CNCC(=O)N2CCC(NC(=O)[C@H](CC(C)C)NC(=O)NNC(=O)[C@H](Cc3ccccc3)NC(=O)[C@@H](NC(=O)[C@H](CC(N)=O)NC(=O)[C@@H]3CCCN3C(=O)[C@@H](Cc3ccc(O)cc3)NC(=O)CCCCCNC(=O)CN3CCN(CC(=O)O)CCN(CC(=O)O)CCN(CC(=O)O)CC3)[C@@H](C)O)(C(=O)N[C@@H](Cc3c[nH]c4ccccc34)C(N)=O)CC2)cc1F

Ki: < 10 nM
B9: Compound 30 (peptide)
peptide: {DOTA-Ahx}-[dW]NTF[azaGly]L[X2]W-NH2
SMILES: Cc1ccc(CNCC(=O)N2CCC(NC(=O)[C@H](CC(C)C)NC(=O)NNC(=O)[C@H](Cc3ccccc3)NC(=O)[C@@H](NC(=O)[C@H](CC(N)=O)NC(=O)[C@@H](Cc3c[nH]c4ccccc34)NC(=O)CCCCCNC(=O)CN3CCN(CC(=O)O)CCN(CC(=O)O)CCN(CC(=O)O)CC3)[C@@H](C)O)(C(=O)N[C@@H](Cc3c[nH]c4ccccc34)C(N)=O)CC2)cc1F

Ki: < 10 nM
B10: Compound 55 (peptide)
peptide: {DOTA-Ahx}-F[azaGly]L[X2]F-NH2
SMILES: Cc1ccc(CNCC(=O)N2CCC(NC(=O)[C@H](CC(C)C)NC(=O)NNC(=O)[C@H](Cc3ccccc3)NC(=O)CCCCCNC(=O)CN3CCN(CC(=O)O)CCN(CC(=O)O)CCN(CC(=O)O)CC3)(C(=O)N[C@@H](Cc3ccccc3)C(N)=O)CC2)cc1F

Ki: < 10 nM
B12: Compound 91 (peptide)
peptide: {DOTA-Ahx}-[dY][dW]NTF[azaGly]L[X7]W-NH2
SMILES: CNC(=N)N1CCC(NC(=O)[C@H](CC(C)C)NC(=O)NNC(=O)[C@H](Cc2ccccc2)NC(=O)[C@@H](NC(=O)[C@H](CC(N)=O)NC(=O)[C@@H](Cc2c[nH]c3ccccc23)NC(=O)[C@@H](Cc2ccc(O)cc2)NC(=O)CCCCCNC(=O)CN2CCN(CC(=O)O)CCN(CC(=O)O)CCN(CC(=O)O)CC2)[C@@H](C)O)(C(=O)N[C@@H](Cc2c[nH]c3ccccc23)C(N)=O)CC1

Ki: < 10 nM
Binder: {DOTA}-KF[azaGly]L[X2]W-NH2 [Compound 37]

Ki: < 10 nM
Binder: {DOTA-2‑(4-aminopiperidin-1-yl)acetic acid}-[dY]ENT[Phe(3-F)][azaGly]L[X2]W-NH2 [Compound 24]

Ki: < 10 nM
Binder: {HO‑PEG3‑C(:O)}-[dY]K(DOTA)NT[Phe(3-F)][azaGly]L[X2]W-NH2 [Compound 64]
